Measured values as given in publication PMC4918640.

Target: extracellular domain of PDGFRα-Fc conjugated (human) (UniProt P16234)
Assay: SPR + BLI

Sequence of UniProt P16234 (P16234 24-528): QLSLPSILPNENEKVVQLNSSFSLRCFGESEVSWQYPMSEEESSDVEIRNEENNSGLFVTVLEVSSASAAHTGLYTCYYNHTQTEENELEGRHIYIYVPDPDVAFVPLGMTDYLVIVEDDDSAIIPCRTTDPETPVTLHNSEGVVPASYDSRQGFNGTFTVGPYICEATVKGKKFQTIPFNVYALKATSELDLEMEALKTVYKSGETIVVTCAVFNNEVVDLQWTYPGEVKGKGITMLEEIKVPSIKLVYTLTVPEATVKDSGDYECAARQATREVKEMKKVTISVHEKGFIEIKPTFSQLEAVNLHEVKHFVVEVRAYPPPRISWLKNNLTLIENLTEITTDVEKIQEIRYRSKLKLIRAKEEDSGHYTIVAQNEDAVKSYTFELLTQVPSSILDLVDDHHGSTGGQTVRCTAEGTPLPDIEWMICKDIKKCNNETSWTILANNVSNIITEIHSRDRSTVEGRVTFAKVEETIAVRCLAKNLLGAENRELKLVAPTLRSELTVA

soluble gHgLgO trimer (from UniProt P16832;P16750) (complex)
Kd: 2 nM
